# Source: patent US10919943B2, “Mutant proteins enabling agrochemical control of plant gene expression” (The Regents of the University of California, priority 2016, dated 2021)
# Test system: Arabidopsis
# Test: Overexpression of HAB1^!-2 (35S::GFP-HAB1^!-2) in Arabidopsis, T1 plant phenotype
# Assay type: in vivo
# Description: To investigate the effects of overexpressing HAB1^!-2 in Arabidopsis, we used Agrobacterium mediated transformation to generate 35S::GFP-HAB1^!-2 transgenic plants. HAB1^!-2 was cloned from pACT-HAB1^!-2 into pEGAD, a binary vector suitable for plant transformation, generating a 35S-driven GFP-HAB1^!-2 fusion protein. The clone was transformed into Agrobacterium and the floral dip method used to transform Arabidopsis. After selection of T0 seed on soil containing glufosinate, several T1 seedlings were identified. […] As an alternate strategy, we eliminated HAB1's catalytic activity by introducing a mutation in a conserved metal-ion binding residue (D204), which is homologous to D131A mutation in ABI1, previously shown to eliminate phosphatase activity without disrupting wild type receptor-ABI1 interactions (Liang et al., 2011). We used QuickChange mutagenesis to introduce the D204A mutation into pACT-HAB1^!-2, generating pACT-HAB1^!-3. When tested for mandipropamid induced interactions with pBD-PYR1*^-MANDI, HAB1^!-3 is ˜10-fold less sensitive to mandipropamid relative to HAB1^!-2 (FIG. 5).
molecule,measurement,value
"HAB1^!-2: HAB1 double mutant V393R, R505A (protein, left off: small tags and cut ends, HAB1 double mutant V393R, R505A) MTPAVAMTLSLAANTMCESSPVEITQLKNVTDAADLLSDSENQSFCNGGTECTMEDVSELEEVGEQDLLKTLSDTRSGSSNVFDEDDVLSVVEDNSAVISEGLLVVDAGSELSLSNTAMEIDNGRVLATAIIVGESSIEQVPTAEVLIAGVNQDTNTSEVVIRLPDENSNHLVKGRSVYELDCIPLWGTVSIQGNRSEMEDAFAVSPHFLKLPIKMLMGDHEGMSPSLTHLTGHFFGVYDGHGGHKVADYCRDRLHFALAEEIERIKDELCKRNTGEGRQVQWDKVFTSCFLTVDGEIEGKIGRAVVGSSDKVLEAVASETVGSTAVVALVCSSHIVVSNCGDSRAVLFRGKEAMPLSVDHKPDREDEYARIENAGGKVIQWQGARVFGRLAMSRSIGDRYLKPYVIPEPEVTFMPRSREDECLILASDGLWDVMNNQEVCEIARRRILMWHKKNGAPPLAERGKGIDPACQAAADYLSMLALQKGSKDNISIIVIDLKAQAKFKTRT",phenotype of T1 plants,"symptoms of severe ABA insensitivity, including dwarf stature and high sensitivity to water deficit"
